Assay [1] concerns the target T1, PP4c peptides L307, meL307 (Homo sapiens, UniProt P60510).
T1 construct: carboxymethylated versus non-methylated PP2Ac, PP4c and PP6c C-terminal undecapeptides
The assay is described as follows: ELISA with PP4c C-terminal undecapeptides. In kind it is binding. Here is the method:
To further characterize the carboxymethyl-PP2Ac specificity of monoclonal antibody 7C10-C5 ELISAs were performed on carboxymethylated versus non-methylated PP2Ac, PP4c and PP6c C-terminal undecapeptides.
Specifically, flat-bottom Nunc-Immuno Medisorp 96-well ELISA plates (Thermo; 467320) were coated o/n at 4° C. with 50 μl of either a peptide of the sequence ac-HVTRRTPDYFL-OH (L309) (SEQ ID NO:18) at a concentration of 2 μg/ml in TBS (137 mM NaCl (AppliChem, #131659, 2.7 mM KCl (AppliChem, #131494), 24.8 mM Tris (AppliChem, #A1086), pH 7.4 with HCl), a peptide of the sequence ac-HVTRRTPDYFL-CH3 (meL309) (SEQ ID NO:18) 2 μg/ml in TBS, with a peptide of the sequence (ac-PSKKPVADYFL (L307) (SEQ ID NO:20) at a concentration of 2 μg/ml in TBS or with a peptide of the sequence ac-PSKKPVADYFL-CH3 (meL307) (SEQ ID NO:20) at a concentration of 2 μg/ml in TBS, with a peptide of the sequence ac-IPPRTTTPYFL (L305) (SEQ ID NO:22) at a concentration of 2 μg/ml in TBS or with a peptide of the sequence ac-IPPRTTTPYFL-CH3 (meL305) (SEQ ID NO:22) at a concentration of 2 μg/ml in TBS. […] Bound antibodies were detected colorimetrically by addition of 50 μl of 33 μg/ml […] (TMB) (Sigma, T2885) in 0.1 M sodium acetate pH 6.0 and 0.01% H2O2 (Sigma, H1009). […] The results from 560 nm read were subtracted from the 450 nm read.

Assay [2] has as its target T2, carboxymethylated PP2Ac C-terminal peptide (ac-[…]-CH3) (Homo sapiens, UniProt P67775).
T2 construct: The following 11-mer peptides corresponding to the carboxymethylated or non-methylated carboxy-terminus of PP2A and PP4 catalytic subunits were used as antigens
The assay is described as follows: Surface plasmon resonance (Biacore T200), steady state analysis, carboxymethylated PP2Ac peptide. In kind it is binding. Here is the method:
The differential affinity of anti-carboxymethylated PP2Ac antibodies, 7C10-C5 and 2A10, to carboxymethylated PP2A catalytic subunit versus noncarboxymethylated PP2A catalytic subunit was determined by surface plasmon resonance (SPR) on a Biacore T200 (GE Healthcare) at the Core Facility Biomolecular & Cellular Analysis (University of Natural Resources and Life Sciences Vienna BOKU). The affinity of 7C10-C5 for carboxymethylated and noncarboxymethylated catalytic subunit of PP4 (PP4c), a PP2A-related phosphatase, was also determined. […] The KD of the binding of 7C10-C5 (or 2A10) to non-carboxymethylated PP2Ac or PP4c could not be determined because at the highest analyte sample concentration (5000 nM) only very weak binding signals were detected indicating KD values of at least >5000 nM or higher. […]
SPR experiments were performed with the BiacoreT200 instrument (Cytiva). […] The sensorgrams obtained were analyzed with BiacoreT200 Evaluation Software (version 3.1). […]

Where only a bound is given, the exact number is not on record here.

The values that follow come from patent publication US20230121197A1, “ANTIBODIES SPECIFICALLY BINDING THE CARBOXYMETHYLATED CATALYTIC SUBUNIT OF PROTEIN PHOSPHATASE 2A” (Medizinische Universität Wien, priority 2020, published 2023).

B1: 7C10-C5: α-carboxymethylation specific mouse monoclonal IgG1 antibody from single clone hybridoma 7C10-C5 (DSM ACC3350) (antibody)
heavy: MYRMQLLSCIALSLALVTNSDVQLQESGPGLVKPSQSLSLTCSVTGYSITSGYYWNWIRQFPGNKLEWMGYISYDGSNNYNPSLKNRISITRDTSKNQFFLKLNSVTTEDTATYYCAGRFAYWGQGTLVTVSAAKTTAPSVYPLAPVCGDTTGSSVTLGCLVKGYFPEPVTLTWNSGSLSSGVHTFPAVLQSDLYTLSSSVTVTSSTWPSQSITCNVAHPASSTKVDKKIEPRGPTIKPCPPCKCPAPNLLGGPSVFIFPPKIKDVLMISLSPIVTCVVVDVSEDDPDVQISWFVNNVEVHTAQTQTHREDYNSTLRVVSALPIQHQDWMSGKEFKCKVNNKDLPAPIERTISKPKGSVRAPQVYVLPPPEEEMTKKQVTLTCMVTDFMPEDIYVEWTNNGKTELNYKNTEPVLDSDGSYFMYSKLRVEKKNWVERNSYSCSVVHEGLHNHHTTKSFSRTPGK
light: MDMRVPAQLLGLLLLWLSGARCDVLMTQTPLSLPVSLGDQASISCRSSQSIVHSNGNTYLEWYLQKPGQSPKLLIYKVSNRFSGVPDRFSGSGSGTDFTLKINRVEAEDLGVYYCFQGSHVPWTFGGGTKLEIKADAAPTVSIFPPSSEQLTSGGASVVCFLNNFYPKDINVKWKIDGSERQNGVLNSWTDQDSKDSTYSMSSTLTLTKDEYERHNSYTCEATHKTSTSPIVKSFNRNEC
modifications: Amino acid sequence of the recombinant 7C10-C5 heavy chain; Amino acid sequence of the recombinant 7C10-C5 light chain
For the molecule B1, the “carboxymethylated versus non-carboxymethylated PP4c peptide signal” value in assay [1] is “No significant difference”. In assay [2] (SPR steady-state affinity model, carboxymethylated PP2Ac 11-mer peptide (SEQ ID NO:18)), this molecule returned an equilibrium dissociation constant (Kd) of at most 0.02 µM. In assay [2] (steady state analysis, PP2A Me peptide, 360 sec contact time, 40 μL/min), this molecule displayed an Rmax of 25.14 RU.
